The values below come from patent US20240141027A1 (BIOARCTIC, published 2024).

In experiment [1] the target is T1, recombinant murine transferrin receptor 1 (mTfR1), extracellular domain fused to a His-tag (murine, UniProt Q62351 89-763).
T1 construct: Position of the His-tag (N or C) unknown; also called recombinant mTfR1; murine TfR1; not shown: His-tag
Put plainly: SPR (Biacore 8K), mTfR1 amine-coupled on CM5 chip, single cycle kinetics. The procedure:
Monovalent binding interaction for mAb158-scLc-8D3-Ig.8 against murine TfR1 was measured using surface plasmon resonance (Biacore 8K, Cytiva). A Cm5 sensor chip (Cytiva, #BR100399) was immobilized with 3 μg/ml of mTfR1 using the amine coupling kit type 2 (Cytiva, #BR100633) according to the manufacturer's instruction. A 2-fold dilution series in HBS-EP+(Cytiva, #BR100669) starting at 50 nM of analyte was injected in duplicates over the immobilized ligand and the interaction was measured using the single cycle kinetics method with a contact time of 160 s at a flow rate of […] followed by a dissociation time of 1000 s.
Background: Surface plasmon resonance follows binding to a sensor surface in real time, without labels.

Experiment [2] deals with T1, recombinant murine transferrin receptor …. Put plainly: indirect ELISA, plates coated with recombinant mTfR1. The method, then: Binding of selected expressed constructs to mTfR1 was assessed by indirect ELISA (FIG. 4). In brief, half area 96-well plates (Corning, #3690) were coated with 1 μg/ml recombinant mTfR1, produced as described in Example 4, in PBS overnight at 4° C. The coated plates were blocked using Pierce protein-free blocking solution (Thermo Fisher Scientific, #37572) for 1 h at room temperature with shaking and washed four times in PBS containing 0.1% TWEEN-20. Serial dilutions (1:3) of expressed constructs in incubation buffer (1% BSA, 0.1% TWEEN-20 in PBS) were incubated for 1 h at room temperature. Following the four wash steps, bound test constructs were detected by addition of anti-mouse-IgG F(ab′)2-HRP antibody (Jackson Immuno Research, #115-035-006) at 1:1250 dilution in incubation buffer (1 h, room temperature). Following four wash steps, K-Blue® Aqueous TMB substrate (Neogen, #331177) was added to the wells for 15 min at room temperature before the reaction was stopped with 1:1 dilution of 0.5 M H₂SO₄. The optical density at 450 nm was recorded (Spark, Tecan) and background signal was subtracted before analysis.
Background: ELISA stands for enzyme-linked immunosorbent assay.

Experiment [3] deals with T2, mTfR1 expressed on cell surfaces of Immortalized Mouse Cerebral Capillary Endothelial Cells (cEND) (mouse, UniProt Q62351 1-763).
T2 construct: whole, on cells; also called mTfR1 on cEND cells
The experiment in a line: flow cytometry on cEND cells, 100 nM, 4° C., anti-mouse IgG-PE. The method, then: Binding and uptake mediated by TfR1 was measured on Immortalized Mouse Cerebral Capillary Endothelial Cells (cEND) (ABM, #T0290).
The pellet was resuspended in PBS and 200,000 cells per well were seeded in U-bottom 96-well Corning plates for flow cytometry staining. Cells were then washed with PBS and incubated with 100 nM of one of the mAb158-8D3 constructs mAb158-scLc-8D3-Ig.1, mAb158-scLc-8D3-Ig.2 and mAb158-scLc-8D3-Ig.3, control 8D3 IgG (light chain of SEQ ID NO:17, heavy chain of SEQ ID NO:19) or murine IgG control for 45 min at 4° C. After primary incubation, cells were washed twice with ice cold PBS, and mAb158-8D3 constructs were captured using a fluorescently labeled secondary anti-mouse IgG-PE antibody (BD Biosciences, 550589). After incubation, cells were washed twice with PBS and resuspended in 200 μl PBS. Cells were acquired in a BD FACSLyric flow cytometer system (BD Biosciences) and samples were analyzed using FCS Express software (De Novo Software).

T1 sequence (Q62351 89-763): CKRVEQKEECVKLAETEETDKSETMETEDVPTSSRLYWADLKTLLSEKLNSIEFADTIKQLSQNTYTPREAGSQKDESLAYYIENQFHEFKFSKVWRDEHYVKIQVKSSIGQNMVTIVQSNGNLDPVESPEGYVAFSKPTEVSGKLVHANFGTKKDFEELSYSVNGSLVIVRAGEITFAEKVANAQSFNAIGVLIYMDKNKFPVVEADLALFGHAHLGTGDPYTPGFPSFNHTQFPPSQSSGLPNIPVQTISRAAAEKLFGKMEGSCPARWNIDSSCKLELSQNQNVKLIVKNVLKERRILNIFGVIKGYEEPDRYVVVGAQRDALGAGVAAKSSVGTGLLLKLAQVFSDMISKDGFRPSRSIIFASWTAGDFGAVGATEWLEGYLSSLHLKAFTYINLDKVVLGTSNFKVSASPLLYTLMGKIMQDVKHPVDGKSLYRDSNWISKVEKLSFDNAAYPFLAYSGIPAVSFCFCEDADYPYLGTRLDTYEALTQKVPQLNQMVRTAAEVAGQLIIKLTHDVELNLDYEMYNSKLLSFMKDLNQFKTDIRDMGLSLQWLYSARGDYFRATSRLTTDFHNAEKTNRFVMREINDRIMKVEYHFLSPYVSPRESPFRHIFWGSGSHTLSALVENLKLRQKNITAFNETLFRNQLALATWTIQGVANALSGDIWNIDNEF
T2 sequence (Q62351 whole entry): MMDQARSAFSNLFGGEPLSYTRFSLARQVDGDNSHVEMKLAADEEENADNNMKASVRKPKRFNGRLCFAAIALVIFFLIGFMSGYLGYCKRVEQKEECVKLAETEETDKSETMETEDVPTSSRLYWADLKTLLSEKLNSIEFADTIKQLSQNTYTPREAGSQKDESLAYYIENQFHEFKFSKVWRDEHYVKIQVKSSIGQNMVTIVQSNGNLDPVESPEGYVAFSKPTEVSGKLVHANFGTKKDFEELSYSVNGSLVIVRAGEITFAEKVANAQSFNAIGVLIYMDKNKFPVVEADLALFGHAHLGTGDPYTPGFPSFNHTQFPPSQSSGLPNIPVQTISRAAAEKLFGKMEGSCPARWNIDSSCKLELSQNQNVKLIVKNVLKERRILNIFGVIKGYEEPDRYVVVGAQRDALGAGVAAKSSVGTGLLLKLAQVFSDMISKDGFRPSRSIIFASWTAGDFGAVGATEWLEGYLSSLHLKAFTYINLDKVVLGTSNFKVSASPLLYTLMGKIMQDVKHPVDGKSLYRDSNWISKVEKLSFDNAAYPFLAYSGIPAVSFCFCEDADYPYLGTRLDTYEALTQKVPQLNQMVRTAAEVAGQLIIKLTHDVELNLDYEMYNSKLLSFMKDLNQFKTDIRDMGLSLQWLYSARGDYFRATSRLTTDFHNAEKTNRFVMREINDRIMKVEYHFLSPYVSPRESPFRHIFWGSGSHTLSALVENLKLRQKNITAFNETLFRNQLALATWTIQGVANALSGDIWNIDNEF

B1: 8D3 Fab (Fab, V domains shown)
VH: EVQLVESGGGLVQPGNSLTLSCVASGFTFSNYGMHWIRQAPKKGLEWIAMIYYDSSKMNYADTVKGRFTISRDNSKNTLYLEMNSLRSEDTAMYYCAVPTSHYVVDVWGQGVSVTVSS
VL: DIQMTQSPASLSASLEEIVTITCQASQDIGNWLAWYQQKPGKSPQLLIYGATSLADGVPSRFSGSRSGTQFSLKISRVQVEDIGIYYCLQAYNTPWTFGGGTKLELKR
notes: Anti-mouse TfR1 control; also called monovalent 8D3 Fab control; monovalent 8D3 Fab
Turning to B1, the binding result in experiment [1] is listed as “binds”.

B2: mAb158-scLc-8D3-Ig.1 (bispecific antibody, human IgG1, kappa)
heavy: not shown
chain: DIVMTQAPLSLPVSLGDQASISCRSSQSIVHSNGNTYLEWYLQKPGQSPKLLIYKVSNRFSGVPDRFSGSGSGTDFTLKISRVEAEDLGIYYCFQGSHVPPTFGGGTKLEIKRADAAPTVSIFPPSSEQLTSGGASVVCFLNNFYPKDINVKWKIDGSERQNGVLNSWTDQDSKDSTYSMSSTLTLTKDEYERHNSYTCEATHKTSTSPIVKSFNRNECGGGGSGGGGSGGGGSEVQLVESGGGLVQPGNSLTLSCVASGFTFSNYGMHWIRQAPKKGLEWIAMIYYDSSKMNYADTVKGRFTISRDNSKNTLYLEMNSLRSEDTAMYYCAVPTSHYVVDVWGQGVSVTVSSGGGGSGGGGSGGGGSDIQMTQSPASLSASLEEIVTITCQASQDIGNWLAWYQQKPGKSPQLLIYGATSLADGVPSRFSGSRSGTQFSLKISRVQVEDIGIYYCLQAYNTPWTFGGGTKLELKRGGSSGSGSGSTGTSSSGTGTSAGTTGTSASTSGSGSDIVMTQAPLSLPVSLGDQASISCRSSQSIVHSNGNTYLEWYLQKPGQSPKLLIYKVSNRFSGVPDRFSGSGSGTDFTLKISRVEAEDLGIYYCFQGSHVPPTFGGGTKLEIKRADAAPTVSIFPPSSEQLTSGGASVVCFLNNFYPKDINVKWKIDGSERQNGVLNSWTDQDSKDSTYSMSSTLTLTKDEYERHNSYTCEATHKTSTSPIVKSFNRNEC
B2: the binding result in experiment [2] and in experiment [3] was “binds” in each case.

B3: mAb158-scLc-8D3-Ig.2 (bispecific antibody, human IgG1, kappa)
heavy: not shown
chain: DIVMTQAPLSLPVSLGDQASISCRSSQSIVHSNGNTYLEWYLQKPGQSPKLLIYKVSNRFSGVPDRFSGSGSGTDFTLKISRVEAEDLGIYYCFQGSHVPPTFGGGTKLEIKRADAAPTVSIFPPSSEQLTSGGASVVCFLNNFYPKDINVKWKIDGSERQNGVLNSWTDQDSKDSTYSMSSTLTLTKDEYERHNSYTCEATHKTSTSPIVKSFNRNECGGGGSGGGGSGGGGSGGGGSGGGGSEVQLVESGGGLVQPGNSLTLSCVASGFTFSNYGMHWIRQAPKKGLEWIAMIYYDSSKMNYADTVKGRFTISRDNSKNTLYLEMNSLRSEDTAMYYCAVPTSHYVVDVWGQGVSVTVSSGGGGSGGGGSGGGGSDIQMTQSPASLSASLEEIVTITCQASQDIGNWLAWYQQKPGKSPQLLIYGATSLADGVPSRFSGSRSGTQFSLKISRVQVEDIGIYYCLQAYNTPWTFGGGTKLELKRGGGGSGGGGSGGGGSGGGGSGGGGSDIVMTQAPLSLPVSLGDQASISCRSSQSIVHSNGNTYLEWYLQKPGQSPKLLIYKVSNRFSGVPDRFSGSGSGTDFTLKISRVEAEDLGIYYCFQGSHVPPTFGGGTKLEIKRADAAPTVSIFPPSSEQLTSGGASVVCFLNNFYPKDINVKWKIDGSERQNGVLNSWTDQDSKDSTYSMSSTLTLTKDEYERHNSYTCEATHKTSTSPIVKSFNRNEC
notes: Format [LC-L1-scBM-L2-LC]
For the molecule B3, the binding result in experiment [2] and in experiment [3] was “binds” throughout.

B4: mAb158-scLc-8D3-Ig.3 (bispecific antibody, human IgG1, kappa)
heavy: not shown
chain: DIVMTQAPLSLPVSLGDQASISCRSSQSIVHSNGNTYLEWYLQKPGQSPKLLIYKVSNRFSGVPDRFSGSGSGTDFTLKISRVEAEDLGIYYCFQGSHVPPTFGGGTKLEIKRADAAPTVSIFPPSSEQLTSGGASVVCFLNNFYPKDINVKWKIDGSERQNGVLNSWTDQDSKDSTYSMSSTLTLTKDEYERHNSYTCEATHKTSTSPIVKSFNRNECGGSSGSGSGSTGTSSSGTGTSAGTTGTSASTSGSGSEVQLVESGGGLVQPGNSLTLSCVASGFTFSNYGMHWIRQAPKKGLEWIAMIYYDSSKMNYADTVKGRFTISRDNSKNTLYLEMNSLRSEDTAMYYCAVPTSHYVVDVWGQGVSVTVSSGGGGSGGGGSGGGGSDIQMTQSPASLSASLEEIVTITCQASQDIGNWLAWYQQKPGKSPQLLIYGATSLADGVPSRFSGSRSGTQFSLKISRVQVEDIGIYYCLQAYNTPWTFGGGTKLELKRGGSSGSGSGSTGTSSSGTGTSAGTTGTSASTSGSGSGGSSGSGSGSTGTSSSGTGTSAGTTGTSASTSGSGSDIVMTQAPLSLPVSLGDQASISCRSSQSIVHSNGNTYLEWYLQKPGQSPKLLIYKVSNRFSGVPDRFSGSGSGTDFTLKISRVEAEDLGIYYCFQGSHVPPTFGGGTKLEIKRADAAPTVSIFPPSSEQLTSGGASVVCFLNNFYPKDINVKWKIDGSERQNGVLNSWTDQDSKDSTYSMSSTLTLTKDEYERHNSYTCEATHKTSTSPIVKSFNRNEC
notes: Format [LC-L1-scBM-L2-LC]
As for B4, the binding result in experiment [2] and in experiment [3] was “binds” in each case.
